Source: the DeepSol protein solubility set

assay: soluble on expression in E. coli; label from the status in PepcDB or PDB records

Question: For “SEACVSVTSSILSSMDPTVDPCHDFFSYACGGWIKANPVPDGHSRWGTFSNLWEHNQAIIKHLLENSTASVSEAERKAQVYYRACMNETRIEELRAKPLMELIERLGGWNITGPWAKDNFQDTLQVVTAHYRTSPFFSVYVSADSKNSNSNVIQVDQSGLGLPSRDYYLNKTENEKVLTGYLNYMVQLGKLLGGGDEEAIRPQMQQILDFETALANITIPQEKRRDEELIYHKVTAAELQTLAPAINWLPFLNTIFYPVEINESEPIVVYDKEYLEQISTLINTTDRCLLNNYMIWNLVRKTSSFLDQRFQDADEKFMEVMYGTKKTSLPRWKFCVSDTENNLGFALGPMFVKATFAEDSKSIATEIILEIKKAFEESLSTLKWMDEETRKSAKEKADAIYNMIGYPNFIMDPKELDKVFNDYTAVPDLYFENAMRFFNFSWRVTADQLRKAPNRDQWSMTPPMVNAYYSPTKNEIVFPAGILQAPFYTRSSPKALNFGGIGVVVGHELTHAFDDQGREYDKDGNLRPWWKNSSVEAFKRQTECMVEQYSNYSVNGEPVNGRHTLGENIADNGGLKAAYRAYQNWVKKNGAEHSLPTLGLTNNQLFFLGFAQVWCSVRTPESSHEGLITDPHSPSRFRVIGSLSNSKEFSEHFRCPPGSPMNPPHKCEVW”, which “soluble on expression in E. coli” value is on record?
Answer: The value was “soluble”.

Question: For “MGSDKIHHHHHHLNQPLTPQPIKTMTDKRQAILDTALALFVSQGFHGTSTASIAKQAGVATGTLFHHFPSKEALMESLFLTIKQQFADTLLLNTHKGSDLKLNALQLWQSAIDWSLDNPVKQLFFQQYSMSPMIAAKVRDQAMNSILGFISELIKQGQMEGLIAHYPLELMLENCHGQYLAATRFFIDNPHLGTNTRYRDASFELFWKAMQAD”, which “soluble on expression in E. coli” value is on record?
Answer: The value was “not soluble”.

Question: Which “soluble on expression in E. coli” value does the source give for “MGSDKIHHHHHHMATAIRGLKLQTEDYFLTDKNAVMVAERHPQPVFPLHHHDFDELVIVWRGNGLHLWNDVPYRITRGDMFYVSAHDRHSYESVHELELDNILYIRNRLTLSADWQTLLPSGELPQSQRHWCLGSEGMDTIREKVDALTQECMKSDALSLQLSEALLLQIALLAARYRHSPDSPQLADAHQLDMLMNALRASIAAPFRFEAFCEQHHFSARSLRSRFKEQTGMSVPHYLRQLRLCKAMELLRYDLQTIGDVAALCGFEDSNYFSVVFHQAFGVSPSAYRQRFLNVE” here?
Answer: The value was “not soluble”.

Question: With “MSRTILQPGQIEAAANIPPHLHQPSRDLFARRGERLLQLAEGHPMGDYLRLVAGLCRLQQALLDNPPALAPLDPERLRKSREHGMPPLAYDLLVREGAWLPWLDALLAGYPAPANAAVGAALEQLREAEEGQRKAWAIALLSGQFDLLPAALVPFLGAALQVAWSHWLLGLEEGAVVETESRTLCPACGSPPMAGMIRQGGKETGLRYLSCSLCACEWHYVRIKCSHCEESKHLAYLSLEHDGQPAEKAVLRAETCPSCQGYLKQFYLEFDRHADALADDLASLALDMRLAEDGYLRRSPNLLLAPGGE” as the sequence, how does the “soluble on expression in E. coli” value read?
Answer: The value was “soluble”.

Question: For “MAHHHHHHMSTEEQQVTQGTAHAPAPTTVKNKANSYYYWHQHEKDRAKVGDVAPMPTPYLVSKDDARAMAAPAVPTVSVSKYSWCDGDKFVSVYIDTVVPEGGTLDESSIEATFTGNSFKVTFATADEAGRTRAKSLSIRLSKRIDKDRSSTKVKPKTQQILVRLAKKVESVWLDLEGEASDQDSAADSEAADAE”, which “soluble on expression in E. coli” value is on record?
Answer: The value was “soluble”.

Question: Which “soluble on expression in E. coli” value does the source give for “MSDKLFSIVTISFNQAQFLREAVESVLAQKGGDIEYIVVDPGSTDGSREILAEYRSAIDHLILEADHGPGDGLNKGFARANGRYGYFLNSDDFLLPGAIDIMRTLWQRHKNTDVLLCGAWMVDENRRPQRELRPSPVTLEKLLDGEAKIVQQGMSFRMDLFRKVGGFNVGNRTCWDYELLCDFLAAGAAVTQSEARLAAFRIHSASISGGIGGELATKRYLADLDSVYERLTGQKKKPEQRRRAVRLSKRLGSPSHVLLRMRELLAPWTLELRWQADHERKSRRLEHHHHHH” here?
Answer: Its value is “not soluble”.

Question: For “MMQIDSIEIGGKVYQFFKSDLGNAPLLFIKGSKGYAMCGYLNMETSNKVGDIAVRVMGVKTLDDMLSAKVVEASQEAQKVGINPGDVLRNVIDKL”, which “soluble on expression in E. coli” value is on record?
Answer: Its value is “soluble”.

Question: For “LDNPFYYLENFRQVLGWIAQRYDDLLDASERRFITEFAGLPMPAQGLLVRMVMRKGVMFRASKLSYAEIGDPHQAVLPLLQQDWVDTSPPLGLSELFQLLRRDELSQCFKAHAVKGPERKHEWLERLQPLYETAQPLEQWHPLLPDAVFGLKIMPLCDRLRLLYFGNLYQEWSEFVLADLGIYRYEKVEFSADSRGINQRDDINVCLQLHACREALETCVELHALAERAIAIECSNPWLNMRRAKLLYRIGQHAERLQDWPLALSVYRQSNYPGARSRQIRVLERNAEYTEAMALVEQAGLAPESDAEVQHLSRGTPRLQRKLGLTAARRPAARVVSRLDVQVTPSPGTSVERLIRLHLEEQQGGEVHYVENTLINSLFGLLCWRAIFAPLPGAFFHPFHSAPSDLYSPDFYQRRAALFDECLLQLESNDYRVTIREHFQSKSGLQSPFVFWGALTPQLLEQALHCLPADHLRLWFRRLLQDIKANRTGMPDLIQFFPEQRGYRMIEVKGPGDRLQDNQLRWLDFCAEHGMPVEVCYVQWA”, which “soluble on expression in E. coli” value is on record?
Answer: The value was “not soluble”.

Question: For “MREQSGINGHEQLATFIDRTDRVLNLVDGFMPETAWLSDIETLTYLHATVSTHRHQVRVPETPMHLDAILADQVLTGGLEPRLGQAHLRTLTIMGFPSQTWPGLLDDLNRLAFDYRWVTRAICLDKTDAAKVLGRIRRQWFAKRKSIAAMLKEIMTNEASALMDSDAANKAVDADMALQELGSDLVGAAYVTATVTIWNDDPRIADERLRLVEKVIQGRDFTCMVERVNAVEAWLGSLPGHVYANVRQPPVSTLNLAHMMPFSAVWAGPERDEHFDAPPLFLAKTEGSTPFRFSLHVGDVGHTLVVGPTGAGKSVLLALMALQFRRYARSQIFAFDFGGSIRAAALAMRGDWHDLGGSLAEDASEPVALQPLAGIDAEEERAWAAEWVAAILAREKVEITPDVKEHVWSALNNLASAPKSERTLTGLSVLLQSQALKQALKPYCVGGPWGRLLDAETERVGSADVLAFETEGLIGTGAAAAVLAYLFHRIEHRLDGRPTLLIVDEGWLALDDEGFASQLREWLKTLRKKNASVIFATQSLADIDGSAIAPAIIESCPTRLFLPNERALEPQIATIYERFGLNDRQIEILSRATPKRDYYCQSRRGNRLFELGLGEVALAFTAASSKGDQILIARLMAEHGPTGFAKAWLEARGVAWATDLIITPQKEKLPLEHHHHHH”, which “soluble on expression in E. coli” value is on record?
Answer: Its value is “soluble”.

Question: For “GAMAMSGGLPELGSKISLISKADIRYEGRLYTVDPQECTIALSSVRSFGTEDRDTQFQIAPQSQIYDYILFRGSDIKDIRVVNNHTLP”, which “soluble on expression in E. coli” value is on record?
Answer: The value was “soluble”.

Question: With “MKVNVSCSSVQTTIDILEENQGEDESILTLGQLRDRIATDNDVDVETMKLLHRGKFLQGADDVSLSTLNFKENDKIIVMGGKNALVDDAGFKMLMQYEKHNLSNLQKAYDLNLRDVADLERGFLEKPKQVEMGKKLEKKVKYFNEEAERHLETLDGMNIITETTPENQAKRNREKRKTLVNGIQTLLNQNDALLRRLQEYQSVLNGDIPE” as the sequence, how does the “soluble on expression in E. coli” value read?
Answer: Its value is “soluble”.

Question: For “MNGKFDKYEYLQDLMRRRGFAWGSFEIYGGSRGFYDYGPLGATIKRKIERKIREAFIREGFFEIETPDITPEQVFIASGHVEKFVDPVVECKKCGMRFRADHLIEEFLGIDVEGKSAEEMSRIIREHGLKCPECGGELSDVFYFNLMFETYIGPYKDKKAYLRPETAQGIFVNFKRLNAFARNKLPFGVFQIGKAYRNEISPRQGMIRLREFTQAEAEIFFNPNETEHPHFNEVKHEKLKLYPIENQLKELGEVEVTAEEAVKRGYVMNSFFAYYMVMIKKILLDIGIPEDKIRFRQQLPEERAHYSADTWDAEVYSERFGWVECVGLAYRTDYDLSRHMKMSGADLTVMIHYDKPKVVKRIQVSLNMKKVGPKLKADAKKINEIIKSMDQKELEKLVKDLNEKGKVTIEGYELSKEDFIVKEVEEKITGEKIVPHVLEPSFGIDRPFYLLLENSLTVDEDGRIYLKIKKDMAPIEVAVLPLVAKEPLTTIAYEIYRTLQKEGFIVVYDEKDSIGKRYMRYDEIGTPYCVTVDNQTPEDGTVTIRDRDTREQIRVKIEELPRKLKELIFG”, which “soluble on expression in E. coli” value is on record?
Answer: Its value is “soluble”.
